# Measured values taken from publication PMC4263763, “Crystal Structure of Calcium Binding Protein-5 from Entamoeba histolytica and Its Involvement in Initiation of Phagocytosis of Human Erythrocytes” (PLoS Pathogens, 2014).
# Values joined by “and” are separate entries in the source; they are usually repeats but may differ in a detail not shown here. Equal entries are not always repeated. “Also recorded” adds a separate entry of the source.
# B1: EhCaBP5: calcium binding protein 5 from E. histolytica (accession number EAL46660) (protein)
# chain: MQKHNEDLKESFLLFDGDGDGYLTLNEFESLVRVLGVVMETSAIASTYNSNSKVRGMSYELFTSCFSQLKTKSFNKDEIKTAINVLDKDKKGFIPAIELRRILSTIGDNMEQKEITDLFTFMGIDEQGVVKVDDFINQLMTVFK
# Key:
# [1] = target: IQ motif peptide of myosin 1B (native) (Entamoeba histolytica); experiment: SPR
# [2] = target: Entamoeba histolytica calcium binding protein-5 (EhCaBP5), recombinant (Entamoeba histolytica); experiment: SPR; EhCaBP5 immobilised on sensor chip up to 500 RU; native and mutated IQ motif peptides as analyte at 25, 50, 75, 100 and 125 mM (so in the source); 25°C
# EhCaBP5 [3] = experiment: SPR binding of native and mutated IQ motif peptides (analyte) to immobilized EhCaBP5 (model validation); design: species or system Entamoeba histolytica; conditions: peptide as analyte, 25°C
# Protocol: To validate EhCaBP5-IQ motif complex model, we obtained commercially synthesized two mutated Myosin 1B IQ motif peptide IQ-M1 A*A*KAWKGYRNRKR (where IQ is mutated to AA) and IQ-M2 IQKAWKGYD*ND*KD* (Where R is mutated to D). The EhCaBP5 was immobilized on sensor chip up to 500 resonance units and native myosin 1B IQ motif peptide and mutated IQ motif peptide were passed as analyte at concentration of […]. The data were recorded at 25°C and data analysis was performed using Biacore […] SPR Kinetics evaluation software.
# EhCaBP5 [4] = experiment: SPR binding of EhCaBP5 (analyte) to immobilized myosin IQ motif peptides; design: species or system Entamoeba histolytica; conditions: Biacore T200, peptide immobilized (2000 RU, CM4 chip), EhCaBP5 as analyte, pH 7.4
# Description: The E. histolytica genome codes for two myosin, myosin I (accession number EAL48894) and myosin II (accession number EAL51645). Myosin I has one IQ motif and myosin II has two IQ motifs. To check the interaction between EhCaBP5 and myosin IQ motifs, we commercially synthesized (obtained) peptides of IQ motif of myosin 1B (unconventional myosin) (IQKAWKGYRNRKR) and second IQ motif of heavy chain myosin (myosin II) ([…]), which is expected to bind to ELC. For the binding study we used Biacore T200 apparatus (Biacore, GE Healthcare) at National Institute of Plant and Genome Research New Delhi, India. A total of 2000 resonance units (RU) of peptides were immobilized on a research grade S series CM4 sensor chip in 10 mM sodium acetate, pH 5.0 according to the manufacturer's amine coupling kit. After peptide immobilization, the surface was blocked with 1 M ethanolamine at pH 8.5, followed by regeneration using 50 mM NaOH. The interaction experiments were performed using buffer containing 10 mM HEPES pH 7.4, 150 mM NaCl and 0.2 mM Calcium chloride. We also performed interaction experiment in absence of Ca^2+ and supplementing 5 mM of EGTA in the above buffer. […] The association kinetics for EhCaBP5 was monitored for 300 seconds and dissociation was monitored for the next 300 seconds.
# [5] = ITC; ref [17]; cited from earlier work
# Description: Overall, the molecule is divided in two globular lobes, where each lobe has four alpha helices connected by loops. The N-terminal lobe has one EF-hand motif with a calcium ion bound to the loop between two helices. The C-terminal lobe has two small anti-parallel beta strands along with four loops (Fig. 1A). Signature residues of an additional EF-hand motif are found in the C-terminal lobe (residues87 to 98). In the crystal structure these residues form a loop between two helices similar to that of a typical EF-hand but density for Ca^2+ is not observed. Consistent with the crystals structure, ...
# myosin 1B = experiment: Co-immunoprecipitation of myosin 1B from total cell lysate; assay type: binding, Entamoeba histolytica; conditions: immobilized anti-EhCaBP5 antibody, 800 µg E. histolytica lysate, 6 h at 4°C, with EGTA; western blot
# Protocol: Immunoprecipitation was carried out as described previously. Briefly, CNBr-activated Sepharose-4B beads (Pharmacia) were conjugated with anti-EhCaBP5 antibody. Crude immunoglobulins were collected from the immunized serum using 40% ammonium sulphate and subsequently dialysed in coupling buffer (bicarbonate buffer). Usually, 10 mg immunoglobulin protein was added per gram of CNBr-activated Sepharose-4B beads. The resin was mixed gently for 18 h at 4°C. The conjugated Sepharose beads were incubated with E. histolytica lysate for 6 h at 4°C. The beads were then washed thrice with wash buffer (10 mM Tris-Cl (pH 7.5), 150 mM NaCl, 1 mM imidazole, 1 mM magnesium acetate, 2 mM β-ME and protease inhibitor cocktail). Ca^2+ and EGTA were maintained throughout the process as required. After incubation the beads were washed sequentially with 60 mM Tris-Cl (pH 6.8), 100 mM NaCl and with 60 mM Tris-Cl (pH 6.8). The pellet was suspended in 2× SDS polyacrylamide gel electrophoresis (PAGE) buffer and boiled for 5 min followed by centrifugation for 5 min. The proteins were then analysed by western blotting.
# F-actin = experiment: Co-sedimentation assay with F-actin; assay type: binding; conditions: in vitro, pellet fraction containing F-actin
molecule,measurement,setting,value
"Entamoeba histolytica calcium binding protein-5 (EhCaBP5), recombinant (natural protein)",Kd,[1],2.4 nM and 5.4 nM
IQ motif peptide of myosin 1B (native),Kd,[2],0.64 nM
"A*A*KAWKGYRNRKR [IQ-M1, mutated Myosin 1B IQ motif peptide IQ-M1 (where IQ is mutated to AA)]",change in Kd versus native peptide (in words),EhCaBP5 [3],could not find any significant change in Kd value
LQACARAFAARKHFS [myosin II IQ motif],binding to EhCaBP5 (in words),EhCaBP5 [4],does not bind
B1,number of Ca^2+ binding sites,[5],one
same,co-precipitation of myosin 1B (in words),myosin 1B,precipitated myosin 1B along with EhCaBP5 even in the presence of EGTA
same,co-sedimentation with / binding to F-actin (in words),F-actin,No significant amount of EhCaBP5 was observed in the pellet fraction containing F-actin; also recorded: does not bind F-actin
